{"source": "paper PMC10878280", "about": "(Journal of Virology, 2024)", "binders": {"B1": {"name": "CD6 IgG (antibody, V domains shown)", "VH": "QVKLQESGGGLVQPKGSLKLSCAASGFTFNTYAMNWVRQAPGKGLEWVARIRSKSNNYATFYADSVKDRFTISRDDSQSMLYLQMHNLKTDDTAMYYCVRPSIYYYASGYLDVWGAGTTVTVSS", "VL": "QIVLSQSPAILSASPGEKVTMTCRTSSSVSYMHWYQQKPGSSPKPWIYATSNLASGVPFRFSGSGSGTSYSLTISRVEAEDAATYYCQQWNSNPPTFGGGTKLEIK", "notes": "not shown: ybbR, C-terminal, kept; copies: 2 + 2"}}, "molecular_target": "neuraminidase (NA) of A/California/04/2009 (Influenza A virus A/California/04/2009 …, UniProt C3W5S3, strain)", "assay": "fluorescence imaging with FRAP of labelled antibody on transfected cells", "settings": "one partner purified", "data": [{"binder": "B1", "values": [{"measurement": "binding result", "result": "binds"}]}]}
